# Assay results published in publication PMC11856660 (PLOS Pathogens, 2025).
# Target: the molecule itself
# Assay: […] (25 mM HEPES pH 8, 300 mM NaCl, 10% glycerol, 1 mM TCEP); […]; 20 °C; […]
protein,measurement,value
"HCoV-229E nsp15 protein, wild type (recombinant, hexameric) (enzyme, source: T7 Express E. coli, purified (Ni-NTA, SEC)) GLENIAFNVVNKGSFVGADGELPVAISGDKVFVRDGNTDNLVFVNKTSLPTNIAFELFAKRKVGLTPPLSILKNLGVVATYKFVLWDYEAERPLTSFTKSVCGYTDFAEDVCTCYDNSIQGSYERFTLSTNAVLFSATAVKTGGKSLPAIKLNFGMLNGNAIATVKSEDGNIKNINWFVYVRKDGKPVDHYDGFYTQGRNLQDFLPRSTMEEDFLNMDIGVFIQKYGLEDFNFEHVVYGDVSKTTLGGLHLLISQVRLSKMGILKAEEFVAASDITLKCCTVTYLNDPSSKTVCTYMDLLLDDFVSVLKSLDLTVVSKVHEVIIDNKPWRWMLWCKDNAVATFYPQLQ",stoichiometry N,6
